Assay results published in the MegaScale stability set (Tsuboyama et al. 2023).

B1: HHH_rd1_0493 (parent)
chain: RDEDEKEKIKEALKRGNEDKAKEIAKRANVSPEEYERLRKEAE
B2: EHEE_rd3_0053 (parent)
chain: TYTFKVDNKDQAKKAAKWAKKLGLSFQIEKHGDTFKITVQ

Variants of: B1
Assay: folding stability dG (cDNA display proteolysis); higher = more stable
Conditions: PBS, room temperature

Folding stability dG [kcal/mol] of substitutions, site by site:
A42: W 2.2, Y 2.14, V 3.33
E43: G 2.47, D 2.56, L 3.33, Y 3.29, H 2.77, I 3.07, N 2.59, W 3.31, T 2.65, P 1.3, Q 3.02, V 2.79, A 2.94, F 3.37, M 3.31, C 2.61, K 2.64, S 2.62, R 2.72

Variants of: B2
Assay: as above
Conditions: PBS, room temperature

Folding stability dG [kcal/mol]: each site, then its substitutions
K17: M 2.52, F 2.26, P -0.379, N 2.23, T 2.17, A 2.61, C 2.6, R 2.63, E 2.36, G 1.9, D 2.16, I 2.53, Q 2.57, S 2.33, L 2.5, H 2.21
K9: Y 2.86, D 1.91, A 2.62, N 1.9, E 2.65, F 2.74, G 1.9, R 2.46, S 2.14, I 2.87, V 2.57, T 2.02, W 3.2, Q 2.26, M 2.74, P 2.31, H 2.25, L 2.9
D7: C 3.29, M 2.51, N 2.62, S 2.66, A 2.71, H 2.58, W 2.66, V 2.33, K 2.77, Y 2.78, I 2.27, F 2.83, E 2.37, T 2.47, L 2.4, P 2.27, Q 2.61, R 2.68, G 2.45
K14: V 2.08, R 2.62, D 1.56, P -0.126, E 1.95, I 2.21, F 2.14, A 2.62, Q 2.24, S 2.04, M 2.34, L 2.33, H 2.06, Y 2.17, G 1.53, N 2, T 1.89, W 2.4
A16: G 1.84, Q 2.16, D 0.642, V 2.47, N 1.06, W 2.37, Y 2.45, R 2.56, M 2.45, T 1.87, S 1.87, I 2.73, H 1.65, K 2.41, F 2.28, L 2.33
D10: I 2.62, W 2.98, M 2.67, R 2.8, Y 3.04, P 1.89, G 2.44, F 2.75, V 2.52, A 2.83, N 2.6, T 2.73, L 2.68, H 2.7, S 2.71, C 2.72, K 2.74, Q 2.68, E 2.73
T1: K 2.46, G 2.42, Y 2.64, R 2.45, S 2.62, P 2.15, A 2.38, E 2.25, Q 2.34, H 2.3, L 2.21, F 2.42, D 1.93, C 3.57, W 2.67, M 2.37, I 2.51, V 2.43, N 2.17
N8: W 1.24, M 1.15, E 1.16, T 2.78, K 1.62, I 1.16, G 2.35, S 2.56, V 0.955, P 0.466, Y 1.27, D 2.02, R 1.86, Q 1.47, A 1.27, F 1.46, H 1.73, L 1.43
A12: S 1.17, G 1.05, W 1.29, E 0.263, I 1.97, Y 1.31, V 2.33, K 1.26, M 2.25, L 2.42, T 1.06, Q 0.843, F 1.36, H 0.275, D -0.537, P -0.057, R 1.29, C 3.23, N -0.078
K5: E 2.93, L 3.2, W 3.77, N 2.79, T 3.28, A 2.54, D 2.34, G 1.89, Q 2.9, V 3.31, M 3.24, F 3.77, H 3.07, I 3.47, R 2.22, P 1.7, S 2.96, Y 3.89
K13: Y 2.32, C 3.24, L 2.46, H 2.07, W 2.35, G 1.72, S 2.11, T 2.12, N 2.27, Q 2.3, E 2.32, M 2.55, R 2.66, I 2.49, P -0.412, D 2.46, A 2.31, V 2.3, F 2.23
Q11: E 2.3, N 1.72, Y 1.74, T 1.93, C 3.05, V 1.95, M 2.36, F 1.85, I 1.97, W 1.79, R 1.99, G 1.97, K 2.38, H 2.1, D 2.39, L 2.33, P 0.025, S 2.18, A 2.65
Y2: V 2.01, M 2.08, K 1.59, S 1.18, E 0.685, G 0.704, F 2.57, P 0.617, T 1.42, D 0.593, W 2.7, R 1.97, L 2.25, H 1.95, C 3.58, A 1.23, I 2.27, N 0.999, Q 1.17
F4: S 0.126, C 3.42, T 0.349, H 0.581, D -0.075, V 1.2, I 1.79, G 0.271, E 0.316, R 0.333, P 0.467, W 2.38, Q 0.162, A 0.455, K 0.404, Y 1.69, M 1.23, L 1.38, N -0.163
T3: C 2.98, Y 2.27, P 0.945, L 1.39, A 1.79, G 0.986, K 1.46, H 2.1, S 2.34, Q 1.95, D 1.34, E 2.15, V 2.49, M 1.99, N 1.43, W 2.67, F 2.2, I 2.43, R 1.6
V6: N -0.311, A 1.62, L 2.32, H 0.343, D -0.058, F 2.32, T 2.1, S 1.03, R 0.551, Q 0.045, W 1.28, K 0.315, G 0.437, M 1.68, I 1.89, Y 1.92, P 0.243, E 0.257
A15: M 2.5, N 0.377, I 3.43, S 1.26, Y 3.04, H 1.42, D -0.785, R 1.43, L 2.82, V 3.15, G 0.564, F 3.33, E 0.415, Q 0.637, K 1.25, C 3.07, T 1.85, P -0.232, W 3.48
